Values belong to the binder of their own block, whether it stands above or below them.
Columns and labels:
[1] = biological target: Aquifex aeolicus TsaD^Δ34–382B2 tetramer (Aquifex aeolicus) (UniProt O66986)
[2] = biological target: Aquifex aeolicus TsaD2B2 tetramer (Aquifex aeolicus) (UniProt O66986)
[3] = biological target: Aquifex aeolicus TsaD2B^mut2 tetramer (Aquifex aeolicus | Thermotoga maritima) (UniProt O66986)
[4] = substrate: Nc1ncnc2c1ncn2[C@@H]1O[C@H](COP(=O)(O)OP(=O)(O)OP(=O)(O)O)[C@@H](O)[C@H]1O; test: NADH-coupled ATPase assay; assay type: biochemical, Aquifex aeolicus; conditions: 10 uM TsaE with 5 uM TsaD2B2, no tRNA, 10 mM MgCl2, 100 mM KCl, pH 7.5, 37 °C
Source text: NADH-coupled ATPase assay on A. aeolicus TsaD2B2E2

[5] = substrate: Nc1ncnc2c1ncn2[C@@H]1O[C@H](COP(=O)(O)OP(=O)(O)OP(=O)(O)O)[C@@H](O)[C@H]1O; test: NADH-coupled ATPase assay; assay type: biochemical, Aquifex aeolicus; conditions: 10 uM TsaE alone, 10 mM MgCl2, 100 mM KCl, pH 7.5, 37 °C
Source text: NADH-coupled ATPase assay on A. aeolicus TsaE (AaTsaE)

Sequence of Aquifex aeolicus TsaD^Δ34–382B2 tetramer (Aquifex aeolicus) (O66986 other isoform, or with tags, fused parts or gaps mutant, chain 1 of 2): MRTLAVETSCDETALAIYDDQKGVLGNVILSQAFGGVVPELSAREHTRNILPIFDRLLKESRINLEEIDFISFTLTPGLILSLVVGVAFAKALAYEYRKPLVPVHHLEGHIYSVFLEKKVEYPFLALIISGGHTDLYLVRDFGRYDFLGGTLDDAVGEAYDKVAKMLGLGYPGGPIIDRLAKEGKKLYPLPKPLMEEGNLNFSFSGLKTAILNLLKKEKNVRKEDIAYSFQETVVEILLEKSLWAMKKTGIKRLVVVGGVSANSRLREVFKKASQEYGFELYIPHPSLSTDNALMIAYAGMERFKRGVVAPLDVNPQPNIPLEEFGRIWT
Sequence of Aquifex aeolicus TsaD^Δ34–382B2 tetramer (Aquifex aeolicus) (partner O66494, as listed by the source mutant, chain 2 of 2): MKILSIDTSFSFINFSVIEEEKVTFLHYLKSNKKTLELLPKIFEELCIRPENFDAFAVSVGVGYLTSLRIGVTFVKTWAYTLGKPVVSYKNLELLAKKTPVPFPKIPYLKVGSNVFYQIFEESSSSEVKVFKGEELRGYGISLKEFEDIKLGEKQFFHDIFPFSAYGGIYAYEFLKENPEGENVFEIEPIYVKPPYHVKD
Sequence of Aquifex aeolicus TsaD2B^mut2 tetramer (Aquifex aeolicus | Thermotoga maritima) (O66986 whole entry, looked up): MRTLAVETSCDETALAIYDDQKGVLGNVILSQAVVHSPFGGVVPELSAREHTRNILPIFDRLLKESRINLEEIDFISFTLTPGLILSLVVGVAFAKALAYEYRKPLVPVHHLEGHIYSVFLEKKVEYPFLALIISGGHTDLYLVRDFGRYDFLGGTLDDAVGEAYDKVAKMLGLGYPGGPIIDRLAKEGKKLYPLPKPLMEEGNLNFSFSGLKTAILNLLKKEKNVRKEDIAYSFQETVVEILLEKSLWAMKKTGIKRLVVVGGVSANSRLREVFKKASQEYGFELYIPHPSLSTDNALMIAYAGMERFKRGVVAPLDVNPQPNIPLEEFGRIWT
Sequence of Aquifex aeolicus TsaD2B2 tetramer (Aquifex aeolicus) (O66986 whole entry, chain 1 of 2): as the sequence (O66986 whole entry, looked up) above
Sequence of Aquifex aeolicus TsaD2B2 tetramer (Aquifex aeolicus) (partner O66494, as listed by the source, chain 2 of 2): as the sequence (partner O66494, as listed by the source mutant, chain 2 of 2) above

Vmax of ATP to ADP hydrolysis by 10 μM TsaE with 5 μM TsaD^Δ34–382B2 (NADH-coupled assay, 37 °C) [1]: 0.219 µM/s
kcat of ATP to ADP hydrolysis by 10 μM TsaE with 5 μM TsaD^Δ34–382B2 (NADH-coupled assay, 37 °C) [1]: 0.044 s⁻¹
Vmax of ATP to ADP hydrolysis by 10 μM TsaE with 5 μM TsaD2B2 (NADH-coupled assay, 37 °C); TsaE alone 0.0374 [2]: 0.0982 µM/s
kcat of ATP to ADP hydrolysis by 10 μM TsaE with 5 μM TsaD2B2 (NADH-coupled assay, 37 °C); TsaE alone 0.007 [2]: 0.02 s⁻¹
Vmax of ATP to ADP hydrolysis by 10 μM TsaE with 5 μM TsaD2B^mut2 (NADH-coupled assay, 37 °C) [3]: 0.125 µM/s
kcat of ATP to ADP hydrolysis by 10 μM TsaE with 5 μM TsaD2B^mut2 (NADH-coupled assay, 37 °C) [3]: 0.025 s⁻¹
B1: Aquifex aeolicus TsaE (enzyme)
chain: MELLKEVILESEEDTYKLAEEIAQLLKGSEVICLRGTLGAGKTTFVKALAKALKVKNPSAVRSPTFTLVNEYETDKGKLIHIDLYRVPDFDYSEFIGEGILAVEWEERDKPCDIILEIEILDENKRKVRIYRK

B2: A. aeolicus TsaD2B2E2 (Aquifex aeolicus VF5) (protein)
chain: MELLKEVILESEEDTYKLAEEIAQLLKGSEVICLRGTLGAGKTTFVKALAKALKVKNPSAVRSPTFTLVNEYETDKGKLIHIDLYRVPDFDYSEFIGEGILAVEWEERDKPCDIILEIEILDENKRKVRIYRK
notes: recombinant from E. coli; with tRNA N6-adenosine threonylcarbamoyltransferase; tRNA threonylcarbamoyladenosine biosynthesis protein TsaB
Km [4]: 228 ± 47.9 µM
Vmax [4]: 5.89 µM/min
kcat [4]: 0.02 ± 0.0012 s⁻¹
kcat/Km [4]: 86 M⁻¹ s⁻¹

B3: A. aeolicus TsaE (AaTsaE) (Aquifex aeolicus VF5) (protein)
chain: MELLKEVILESEEDTYKLAEEIAQLLKGSEVICLRGTLGAGKTTFVKALAKALKVKNPSAVRSPTFTLVNEYETDKGKLIHIDLYRVPDFDYSEFIGEGILAVEWEERDKPCDIILEIEILDENKRKVRIYRK
notes: recombinant from E. coli (plasmid pET24d-BC11_Eop); monomer
Km [5]: 96 ± 44.9 µM
Vmax [5]: 2.24 µM/min
kcat [5]: 0.007 ± 0.0007 s⁻¹
kcat/Km [5]: 78 M⁻¹ s⁻¹
